Experimental data taken from article PMC3466273.

Biological target: His1 (position 1, -----HTASDA)
Experiment: potentiometry
Details: not stated (electrode with a thermo-compensating apparatus); not stated (no added salt; distilled water with about 1 mM HCl/NaOH); none (distilled water acidified with 1 mM HCl, titrated with 1 mM NaOH); free peptide, 0.27 mM, 5 mL, in water

**Q.** How did the pKa turn out when HTASDAAAAAALTAANAAAAAAASMA was run?
**A.** 6.0
